# T1: mouse FcRn (mouse, UniProt Q61559 22-297; P01887 21-119, limits assumed)
# T1 sequence (looked up) 1: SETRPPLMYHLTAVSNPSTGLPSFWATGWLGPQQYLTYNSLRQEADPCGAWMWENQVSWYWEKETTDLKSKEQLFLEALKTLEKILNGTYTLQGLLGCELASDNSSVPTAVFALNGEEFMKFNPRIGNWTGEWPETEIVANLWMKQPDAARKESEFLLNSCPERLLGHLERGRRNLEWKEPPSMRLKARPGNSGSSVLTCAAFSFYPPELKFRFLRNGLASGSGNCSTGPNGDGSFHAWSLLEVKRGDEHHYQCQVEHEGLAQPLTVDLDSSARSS
# T1 sequence (looked up) 2: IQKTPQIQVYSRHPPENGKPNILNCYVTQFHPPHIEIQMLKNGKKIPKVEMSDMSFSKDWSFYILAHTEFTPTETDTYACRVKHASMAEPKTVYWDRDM
# T2: rat FcRn (rat, UniProt P13599 23-298; P07151 21-119, limits assumed)
# T2 sequence (looked up) 1: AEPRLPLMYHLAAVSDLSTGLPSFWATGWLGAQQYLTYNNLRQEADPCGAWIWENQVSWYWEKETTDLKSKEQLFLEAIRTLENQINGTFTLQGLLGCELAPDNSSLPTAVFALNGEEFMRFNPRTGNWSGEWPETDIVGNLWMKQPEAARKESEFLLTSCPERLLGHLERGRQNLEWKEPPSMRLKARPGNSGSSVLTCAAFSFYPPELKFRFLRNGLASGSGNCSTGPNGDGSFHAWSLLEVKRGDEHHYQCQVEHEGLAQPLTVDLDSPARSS
# T2 sequence (looked up) 2: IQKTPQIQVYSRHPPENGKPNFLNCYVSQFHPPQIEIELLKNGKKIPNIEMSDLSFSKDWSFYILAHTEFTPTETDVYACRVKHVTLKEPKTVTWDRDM
# Assays:
# mouse FcRn [1] = biological target: T1, mouse FcRn; assay: SPR, pH 7.4
# cynomolgus monkey FcRn [2] = biological target: T3, cynomolgus monkey FcRn (cynomolgus monkey, UniProt Q8SPV9 24-297; Q8SPW0 21-119, limits assumed); assay: SPR, pH 7.4
# T3 construct: also called cynoFcRn
# [3] = biological target: T4, Recombinant in-house Human FcRn protein (human, UniProt P55899 24-297; P61769 21-119, limits assumed); assay: SPR, pH 7.4
# T4 construct: also called huFCRN; HuFcRn
# rat FcRn [4] = biological target: T2, rat FcRn; assay: SPR, pH 7.4
# mouse FcRn [5] = biological target: T1, mouse FcRn; assay: SPR, pH 6
# cynomolgus monkey FcRn [6] = biological target: T3, cynomolgus monkey FcRn; assay: SPR, pH 6
# [7] = biological target: T4, Recombinant in-house Human FcRn protein; assay: SPR, pH 6
# rat FcRn [8] = biological target: T2, rat FcRn; assay: SPR, pH 6
# [9] = biological target: T4, Recombinant in-house Human FcRn protein; assay: competitive binding ELISA, pH 6.0, in triplicate; competitor IgG
# [10] = biological target: T4, Recombinant in-house Human FcRn protein; assay: competitive binding ELISA, pH 6.0; competitor Efgartigimod (Fc Fragment 1)
Binder,Kd (mouse FcRn [1]),Kd (cynomolgus monkey FcRn [2]),Kd [3],Kd (rat FcRn [4]),Kd (mouse FcRn [5]),Kd (cynomolgus monkey FcRn [6]),Kd [7],Kd (rat FcRn [8]),IC50 [9],IC50 [10]
"Fc Fragment 1 (other, Human IgG1 Fc fragment (EU 221-446) with the named substitutions already in the entry; also called Efgartigimod (Efgart); Efgartigimod without the C-terminal lysine) DKTHTCPPCPAPELLGGPSVFLFPPKPKDTLYITREPEVTCVVVDVSHEDPEVKFNWYVDGVEVHNAKTKPREEQYNSTYRVVSVLTVLHQDWLNGKEYKCKVSNKALPAPIEKTISKAKGQPREPQVYTLPPSRDELTKNQVSLTCLVKGFYPSDIAVEWESNGQPENNYKTTPPVLDSDGSFFLYSKLTVDKSRWQQGNVFSCSVMHEALKFHYTQKSLSLSPG",2.8 nM,1370 nM,239 nM,12.3 nM,0.269 nM,39.7 nM,8.8 nM,3.71 nM,2.85 nM,4.82 nM
"Fc Fragment 11 (other, Human IgG1 Fc fragment; substitutions already in the entry) DKTHTCPPCPAPELLGGPSVFLFPPKPKDTLYITREPEVTCVVVDVSHEDPEVKFNWYVDGVEVHNAKTKPREEQYNSTYRVVSVLTVLHQDWLNGKEYKCKVSNKALPAPIEKTISKAKGQPREPQVYTLPPSRDELTKNQVSLTCLVKGFYPSDIAVEWESNGQPENNYKTTPPVLDSDGSFFLYSKLTVDKSRWQQGNVFSCSVLHEALHFHYTQKSLSLSPG",4.05 nM,1700 nM,269 nM,14.7 nM,0.248 nM,38.6 nM,8.41 nM,2.9 nM,1.51 nM,6.47 nM
"Fc Fragment 18 (other, Human IgG1 Fc fragment; substitutions already in the entry) DKTHTCPPCPAPELLGGPSVFLFPPKPKDTLYITREPEVTCVVVDVSHEDPEVKFNWYVDGVEVHNAKTKPREEQYNSTYRVVSVLTVDHQDWLNGKEYKCKVSNKALPAPIEKTISKAKGQPREPQVYTLPPSRDELTKNQVSLTCLVKGFYPSDIAVEWESNGQPENNYKTTPPVLDSDGSFFLYSKLTVDKSRWQQGNVFSCSVLHEALKYHYTQKSLSLSPG",,2110 nM,262 nM,,,51.2 nM,58.7 nM,,6.91 nM,
"Fc Fragment 16 (other, Human IgG1 Fc fragment; substitutions already in the entry) DKTHTCPPCPAPELLGGPSVFLFPPKPKDTLYITREPEVTCVVVDVSHEDPEVKFNWYVDGVEVHNAKTKPREEQYNSTYRVVSVLTVDHQDWLNGKEYKCKVSNKALPAPIEKTISKAKGQPREPQVYTLPPSRDELTKNQVSLTCLVKGFYPSDIAVEWESNGQPENNYKTTPPVLDSDGSFFLYSKLTVDKSRWQQGNVFSCSVMHEALKYHYTQKSLSLSPG",,1680 nM,371 nM,,,47.2 nM,,,8.45 nM,
"Fc Fragment 17 (other, Human IgG1 Fc fragment; substitutions already in the entry) DKTHTCPPCPAPELLGGPSVFLFPPKPKDTLYITREPEVTCVVVDVSHEDPEVKFNWYVDGVEVHNAKTKPREEQYNSTYRVVSVLTVDHQDWLNGKEYKCKVSNKALPAPIEKTISKAKGQPREPQVYTLPPSRDELTKNQVSLTCLVKGFYPSDIAVEWESNGQPENNYKTTPPVLDSDGSFFLYSKLTVDKSRWQQGNVFSCSVLHEALKFHYTQKSLSLSPG",,2190 nM,293 nM,,,62.1 nM,68.3 nM,,10.2 nM,

# Results, then the binder that gave them:
Kd (mouse FcRn [1]),Kd (cynomolgus monkey FcRn [2]),Kd [3],Kd (rat FcRn [4]),Kd (mouse FcRn [5]),Kd (cynomolgus monkey FcRn [6]),Kd [7],Kd (rat FcRn [8]),IC50 [9],IC50 [10],Binder
2.55 nM,1540 nM,259 nM,11.8 nM,0.182 nM,36.2 nM,8.05 nM,3.5 nM,1.31 nM,4.09 nM,"Fc Fragment 2 (other, Human IgG1 Fc fragment; substitutions already in the entry; also called Fc195) DKTHTCPPCPAPELLGGPSVFLFPPKPKDTLYITREPEVTCVVVDVSHEDPEVKFNWYVDGVEVHNAKTKPREEQYNSTYRVVSVLTVLHQDWLNGKEYKCKVSNKALPAPIEKTISKAKGQPREPQVYTLPPSRDELTKNQVSLTCLVKGFYPSDIAVEWESNGQPENNYKTTPPVLDSDGSFFLYSKLTVDKSRWQQGNVFSCSVLHEALKFHYTQKSLSLSPG"
,1430 nM,252 nM,,,1250 nM,80.4 nM,,7.98 nM,,"Fc Fragment 19 (other, Human IgG1 Fc fragment; substitutions already in the entry) DKTHTCPPCPAPELLGGPSVFLFPPKPKDTLYITREPEVTCVVVDVSHEDPEVKFNWYVDGVEVHNAKTKPREEQYNSTYRVVSVLTVDHKDWLNGKEYKCKVSNKALPAPIEKTISKAKGQPREPQVYTLPPSRDELTKNQVSLTCLVKGFYPSDIAVEWESNGQPENNYKTTPPVLDSDGSFFLYSKLTVDKSRWQQGNVFSCSVMHEALKFHYTQKSLSLSPG"
2.83 nM,900 nM,166 nM,17.3 nM,0.194 nM,30.1 nM,7.15 nM,5.41 nM,1.41 nM,3.73 nM,"Fc Fragment 12 (other, Human IgG1 Fc fragment; substitutions already in the entry) DKTHTCPPCPAPELLGGPSVFLFPPKPKDTLYITREPEVTCVVVDVSHEDPEVKFNWYVDGVEVHNAKTKPREEQYNSTYRVVSVLTVLHQDWLNGKEYKCKVSNKALPAPIEKTISKAKGQPREPQVYTLPPSRDELTKNQVSLTCLVKGFYPSDIAVEWESNGQPENNYKTTPPVLDSDGSFFLYSKLTVDKSRWQQGNVFSCSVMHEALRYHYTQKSLSLSPG"
,1430 nM,291 nM,,,60.8 nM,76.4 nM,,30.3 nM,,"Fc Fragment 15 (other, Human IgG1 Fc fragment; substitutions already in the entry) DKTHTCPPCPAPELLGGPSVFLFPPKPKDTLYITREPEVTCVVVDVSHEDPEVKFNWYVDGVEVHNAKTKPREEQYNSTYRVVSVLTVDHQDWLNGKEYKCKVSNKALPAPIEKTISKAKGQPREPQVYTLPPSRDELTKNQVSLTCLVKGFYPSDIAVEWESNGQPENNYKTTPPVLDSDGSFFLYSKLTVDKSRWQQGNVFSCSVMHEALKFHYTQKSLSLSPG"
1.53 nM,725 nM,169 nM,11.5 nM,0.143 nM,28.6 nM,6.62 nM,3.49 nM,,5.03 nM,"Fc Fragment 10 (other, Human IgG1 Fc fragment; substitutions already in the entry) DKTHTCPPCPAPELLGGPSVFLFPPKPKDTLYITREPEVTCVVVDVSHEDPEVKFNWYVDGVEVHNAKTKPREEQYNSTYRVVSVLTVLHQDWLNGKEYKCKVSNKALPAPIEKTISKAKGQPREPQVYTLPPSRDELTKNQVSLTCLVKGFYPSDIAVEWESNGQPENNYKTTPPVLDSDGSFFLYSKLTVDKSRWQQGNVFSCSVLHEALKYHYTQKSLSLSPG"
2.38 nM,948 nM,210 nM,14.9 nM,0.172 nM,28.9 nM,6.74 nM,4.25 nM,0.77 nM,4.59 nM,"Fc Fragment 3 (other, Human IgG1 Fc fragment; substitutions already in the entry; also called Fc197) DKTHTCPPCPAPELLGGPSVFLFPPKPKDTLYITREPEVTCVVVDVSHEDPEVKFNWYVDGVEVHNAKTKPREEQYNSTYRVVSVLTVLHQDWLNGKEYKCKVSNKALPAPIEKTISKAKGQPREPQVYTLPPSRDELTKNQVSLTCLVKGFYPSDIAVEWESNGQPENNYKTTPPVLDSDGSFFLYSKLTVDKSRWQQGNVFSCSVMHEALKYHYTQKSLSLSPG"
,1550 nM,290 nM,,,372 nM,51.7 nM,,5.18 nM,,"Fc Fragment 20 (other, Human IgG1 Fc fragment; substitutions already in the entry) DKTHTCPPCPAPELLGGPSVFLFPPKPKDTLYITREPEVTCVVVDVSHEDPEVKFNWYVDGVEVHNAKTKPREEQYNSTYRVVSVLTVDHKDWLNGKEYKCKVSNKALPAPIEKTISKAKGQPREPQVYTLPPSRDELTKNQVSLTCLVKGFYPSDIAVEWESNGQPENNYKTTPPVLDSDGSFFLYSKLTVDKSRWQQGNVFSCSVMHEALKYHYTQKSLSLSPG"

# Reference: patent US20250152704A1 (PARAGON THERAPEUTICS, published 2025)
